Measured values from publication PMC6555819, “Comprehensive study of nuclear receptor DNA binding provides a revised framework for understanding receptor specificity”.

Assays:
RXRa = RXRa (Homo sapiens, UniProt P19793); assay: no ligand; PBM; 180 nM; PBS pH 7.4, 2% milk, 0.02% Triton X-100, 1 mM DTT, BSA, 0.4 mg/ml salmon testes DNA; conditions: tags: His cleaved; chain copies: 2; label: surface-attached array probe
RARa:RXRa = RARa:RXRa (Homo sapiens, UniProt P10276;P19793 full;full); assay: no ligand; PBM; 270 nM : 90 nM RXRa; PBS pH 7.4, 2% milk, 0.02% Triton X-100, 1 mM DTT, BSA, 0.4 mg/ml salmon testes DNA; conditions: tags: His kept;His cleaved; copies: 1;1; label: surface-attached array probe
Procedure, shortened: (§1)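 Binding z-scores were set against random background probes. The data came from custom Agilent 4×180K protein-binding microarrays carrying double-stranded probes with 34-nt variable regions, incubated 1 h with ligand-free nuclear receptor dimers. Partner-specific antibodies detected binding, and scanned fluorescence was regression-normalized.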

FXR:RXRa = FXR:RXRa (Homo sapiens, UniProt Q96RI1;P19793 full;full); assay: as above; conditions: tags: His kept;His cleaved; copies: 1;1; label: surface-attached array probe
Procedure, shortened: as §1

RARg:RXRa = RARg:RXRa (Homo sapiens, UniProt P13631;P19793 full;full); assay: as above; conditions: tags: His kept;His cleaved; copies: 1;1; label: surface-attached array probe
Procedure, shortened: as §1

VDR:RXRa = VDR:RXRa (Homo sapiens, UniProt P11473;P19793 full;full); assay: as above; conditions: tags: His kept;His cleaved; copies: 1;1; label: surface-attached array probe
Procedure, shortened: as §1

LXRb:RXRa = LXRb:RXRa (Homo sapiens, UniProt P55055;P19793 full;full); assay: as above; conditions: tags: His kept;His cleaved; copies: 1;1; label: surface-attached array probe
Procedure, shortened: as §1

PPARa:RXRa = PPARa:RXRa (Homo sapiens, UniProt Q07869;P19793 full;full); assay: as above; conditions: tags: GST kept;His cleaved; copies: 1;1; label: surface-attached array probe
Procedure, shortened: as §1

RARb:RXRa = RARb:RXRa (Homo sapiens, UniProt P10826;P19793 full;full); assay: as above; conditions: tags: His kept;His cleaved; copies: 1;1; label: surface-attached array probe
Procedure, shortened: as §1

LXRa:RXRa = LXRa:RXRa (Homo sapiens, UniProt Q13133;P19793 full;full); assay: as above; conditions: tags: His kept;His cleaved; copies: 1;1; label: surface-attached array probe
Procedure, shortened: as §1

LXRb:RXRa, sequence (P55055 whole entry, chain 1 of 2): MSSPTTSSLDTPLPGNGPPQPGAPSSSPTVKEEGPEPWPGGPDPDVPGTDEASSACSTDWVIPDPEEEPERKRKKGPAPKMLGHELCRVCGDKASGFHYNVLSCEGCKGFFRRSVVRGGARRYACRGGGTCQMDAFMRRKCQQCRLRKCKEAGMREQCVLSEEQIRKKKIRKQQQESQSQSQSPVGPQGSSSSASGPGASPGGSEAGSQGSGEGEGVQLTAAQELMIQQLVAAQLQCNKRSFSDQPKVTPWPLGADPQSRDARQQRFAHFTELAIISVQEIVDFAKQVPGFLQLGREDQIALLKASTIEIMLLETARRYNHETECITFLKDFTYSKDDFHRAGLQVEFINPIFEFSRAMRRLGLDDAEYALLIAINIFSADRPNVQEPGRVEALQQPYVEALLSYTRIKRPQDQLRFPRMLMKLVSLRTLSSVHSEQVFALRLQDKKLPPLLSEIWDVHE
LXRb:RXRa, sequence (P19793 whole entry, chain 2 of 2): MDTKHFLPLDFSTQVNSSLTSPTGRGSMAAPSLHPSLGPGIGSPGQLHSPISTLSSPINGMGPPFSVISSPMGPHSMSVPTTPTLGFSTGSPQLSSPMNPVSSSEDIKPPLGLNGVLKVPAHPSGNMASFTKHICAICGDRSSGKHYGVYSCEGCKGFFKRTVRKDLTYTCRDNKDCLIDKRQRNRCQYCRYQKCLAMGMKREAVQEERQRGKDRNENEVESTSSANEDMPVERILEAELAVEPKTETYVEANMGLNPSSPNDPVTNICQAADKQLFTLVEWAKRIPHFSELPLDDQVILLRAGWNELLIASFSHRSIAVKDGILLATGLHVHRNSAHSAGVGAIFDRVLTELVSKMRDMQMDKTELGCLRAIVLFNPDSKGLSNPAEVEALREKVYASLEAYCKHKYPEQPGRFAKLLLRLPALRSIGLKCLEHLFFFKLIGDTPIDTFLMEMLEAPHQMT
RXRa, sequence (P19793 whole entry): as the sequence (P19793 whole entry, chain 2 of 2) above
RARa:RXRa, sequence (P10276 whole entry, chain 1 of 2): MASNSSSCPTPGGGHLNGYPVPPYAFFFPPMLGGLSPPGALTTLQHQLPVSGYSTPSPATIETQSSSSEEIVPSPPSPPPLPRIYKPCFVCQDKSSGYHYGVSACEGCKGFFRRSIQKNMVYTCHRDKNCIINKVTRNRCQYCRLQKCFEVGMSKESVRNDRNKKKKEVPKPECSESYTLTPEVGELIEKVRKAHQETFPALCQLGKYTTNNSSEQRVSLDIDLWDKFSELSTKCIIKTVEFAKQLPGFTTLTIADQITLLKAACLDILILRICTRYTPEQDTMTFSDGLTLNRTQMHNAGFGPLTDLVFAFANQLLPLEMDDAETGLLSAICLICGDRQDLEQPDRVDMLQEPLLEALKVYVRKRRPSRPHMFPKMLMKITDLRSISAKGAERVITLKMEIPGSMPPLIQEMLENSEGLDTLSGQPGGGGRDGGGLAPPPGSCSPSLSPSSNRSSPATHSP
RARa:RXRa, sequence (P19793 whole entry, chain 2 of 2): as the sequence (P19793 whole entry, chain 2 of 2) above
LXRa:RXRa, sequence (Q13133 whole entry, chain 1 of 2): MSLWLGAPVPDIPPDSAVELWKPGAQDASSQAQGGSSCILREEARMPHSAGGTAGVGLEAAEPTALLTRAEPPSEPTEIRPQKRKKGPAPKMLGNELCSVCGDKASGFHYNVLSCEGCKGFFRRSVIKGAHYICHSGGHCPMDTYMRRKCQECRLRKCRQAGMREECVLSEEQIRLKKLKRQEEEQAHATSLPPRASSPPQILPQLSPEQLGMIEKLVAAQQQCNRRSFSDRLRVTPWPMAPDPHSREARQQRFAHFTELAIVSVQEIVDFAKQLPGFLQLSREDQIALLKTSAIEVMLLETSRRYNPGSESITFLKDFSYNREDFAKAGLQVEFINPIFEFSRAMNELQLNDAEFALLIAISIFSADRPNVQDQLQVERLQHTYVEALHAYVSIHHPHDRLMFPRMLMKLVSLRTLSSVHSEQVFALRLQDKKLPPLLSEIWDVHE
LXRa:RXRa, sequence (P19793 whole entry, chain 2 of 2): as the sequence (P19793 whole entry, chain 2 of 2) above
RARb:RXRa, sequence (P10826 whole entry, chain 1 of 2): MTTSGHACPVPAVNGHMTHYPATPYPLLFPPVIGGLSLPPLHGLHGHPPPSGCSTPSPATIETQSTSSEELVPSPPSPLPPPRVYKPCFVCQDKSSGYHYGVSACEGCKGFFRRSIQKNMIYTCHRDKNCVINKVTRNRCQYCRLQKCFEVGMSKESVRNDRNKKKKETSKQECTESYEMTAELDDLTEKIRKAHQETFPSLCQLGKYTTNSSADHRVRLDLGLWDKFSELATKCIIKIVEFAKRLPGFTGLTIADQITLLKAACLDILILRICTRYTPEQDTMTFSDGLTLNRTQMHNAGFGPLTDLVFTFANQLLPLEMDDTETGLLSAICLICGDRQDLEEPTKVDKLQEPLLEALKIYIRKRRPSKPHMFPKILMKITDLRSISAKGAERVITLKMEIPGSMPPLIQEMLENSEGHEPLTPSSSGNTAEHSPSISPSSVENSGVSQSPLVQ
RARb:RXRa, sequence (P19793 whole entry, chain 2 of 2): as the sequence (P19793 whole entry, chain 2 of 2) above
PPARa:RXRa, sequence (Q07869 whole entry, chain 1 of 2): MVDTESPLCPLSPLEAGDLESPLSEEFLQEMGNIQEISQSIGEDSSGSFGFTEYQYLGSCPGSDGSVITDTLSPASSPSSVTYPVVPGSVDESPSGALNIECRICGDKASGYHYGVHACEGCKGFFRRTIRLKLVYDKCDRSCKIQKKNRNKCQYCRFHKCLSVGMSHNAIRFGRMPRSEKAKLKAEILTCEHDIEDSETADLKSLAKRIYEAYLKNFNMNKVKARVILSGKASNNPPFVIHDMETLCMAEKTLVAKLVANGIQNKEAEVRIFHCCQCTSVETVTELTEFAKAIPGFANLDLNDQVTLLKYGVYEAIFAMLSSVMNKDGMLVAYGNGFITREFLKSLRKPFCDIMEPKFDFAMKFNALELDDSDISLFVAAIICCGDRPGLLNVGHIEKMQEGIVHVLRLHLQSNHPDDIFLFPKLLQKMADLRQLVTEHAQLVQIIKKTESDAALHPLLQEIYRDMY
PPARa:RXRa, sequence (P19793 whole entry, chain 2 of 2): as the sequence (P19793 whole entry, chain 2 of 2) above
FXR:RXRa, sequence (Q96RI1 whole entry, chain 1 of 2): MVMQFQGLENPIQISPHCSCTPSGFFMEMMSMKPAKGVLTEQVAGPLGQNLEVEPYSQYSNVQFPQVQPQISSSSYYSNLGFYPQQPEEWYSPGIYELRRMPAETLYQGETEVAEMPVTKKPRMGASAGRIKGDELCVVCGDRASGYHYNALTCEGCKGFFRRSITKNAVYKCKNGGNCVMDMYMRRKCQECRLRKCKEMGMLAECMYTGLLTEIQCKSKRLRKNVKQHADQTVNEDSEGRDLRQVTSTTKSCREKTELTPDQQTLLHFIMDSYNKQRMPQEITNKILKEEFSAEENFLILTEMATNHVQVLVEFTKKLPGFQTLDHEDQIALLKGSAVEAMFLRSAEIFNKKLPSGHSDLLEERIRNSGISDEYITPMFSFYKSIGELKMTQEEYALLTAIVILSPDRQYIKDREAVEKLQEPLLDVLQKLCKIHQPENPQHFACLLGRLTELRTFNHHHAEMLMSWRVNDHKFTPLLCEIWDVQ
FXR:RXRa, sequence (P19793 whole entry, chain 2 of 2): as the sequence (P19793 whole entry, chain 2 of 2) above
RARg:RXRa, sequence (P13631 whole entry, chain 1 of 2): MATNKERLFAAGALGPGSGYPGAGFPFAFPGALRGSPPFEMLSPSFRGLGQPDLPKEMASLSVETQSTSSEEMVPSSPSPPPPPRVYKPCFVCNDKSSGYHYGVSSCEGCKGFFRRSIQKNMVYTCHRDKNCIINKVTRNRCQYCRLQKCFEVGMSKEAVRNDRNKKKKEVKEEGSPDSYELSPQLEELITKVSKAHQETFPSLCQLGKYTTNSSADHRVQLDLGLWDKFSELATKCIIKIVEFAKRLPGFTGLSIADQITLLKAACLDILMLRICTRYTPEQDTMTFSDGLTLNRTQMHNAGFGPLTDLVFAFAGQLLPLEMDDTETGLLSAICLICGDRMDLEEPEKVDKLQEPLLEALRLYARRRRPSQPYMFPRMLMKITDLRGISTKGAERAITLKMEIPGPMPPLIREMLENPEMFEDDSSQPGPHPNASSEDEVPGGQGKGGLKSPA
RARg:RXRa, sequence (P19793 whole entry, chain 2 of 2): as the sequence (P19793 whole entry, chain 2 of 2) above
VDR:RXRa, sequence (P11473 whole entry, chain 1 of 2): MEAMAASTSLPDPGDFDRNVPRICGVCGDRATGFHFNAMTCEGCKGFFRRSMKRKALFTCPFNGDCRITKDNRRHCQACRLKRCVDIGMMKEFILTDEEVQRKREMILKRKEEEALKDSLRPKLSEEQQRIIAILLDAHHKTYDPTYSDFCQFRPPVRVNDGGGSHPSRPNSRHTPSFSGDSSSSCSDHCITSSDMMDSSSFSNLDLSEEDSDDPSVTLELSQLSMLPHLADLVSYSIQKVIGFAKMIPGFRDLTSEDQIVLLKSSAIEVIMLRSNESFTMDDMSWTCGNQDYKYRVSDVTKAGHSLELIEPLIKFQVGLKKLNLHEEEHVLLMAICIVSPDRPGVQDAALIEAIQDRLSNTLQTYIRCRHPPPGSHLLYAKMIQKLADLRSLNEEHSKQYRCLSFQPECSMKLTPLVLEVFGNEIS
VDR:RXRa, sequence (P19793 whole entry, chain 2 of 2): as the sequence (P19793 whole entry, chain 2 of 2) above

Row | Binder | binding signal (RXRa) | binding signal (RARa:RXRa) | binding signal (FXR:RXRa) | binding signal (RARg:RXRa) | binding signal (VDR:RXRa) | binding signal (LXRb:RXRa) | binding signal (PPARa:RXRa) | binding signal (RARb:RXRa) | binding signal (LXRa:RXRa)
1 | NRC3_random_hg19_84_o1 (dsDNA) DNA 1: GCGTAAGACACCTTCCTAGGAAGAGAACAGCAGAATGCGATTGACAGCGTAGAATGAAGG DNA 2: CCTTCATTCTACGCTGTCAATCGCATTCTGCTGTTCTCTTCCTAGGAAGGTGTCTTACGC | -0.13 PBM z-score against 500 random probes | -0.2 PBM z-score against 500 random probes | -0.49 PBM z-score against 500 random probes | – | – | – | – | – | –
2 | NRC3_random_hg19_457_o1 (dsDNA) DNA 1: GCAGCTGCATCCATGTTGCTGCAAAGGACATGACTTGCGATTGACAGCGTAGAATGAAGG DNA 2: CCTTCATTCTACGCTGTCAATCGCAAGTCATGTCCTTTGCAGCAACATGGATGCAGCTGC | -0.65 PBM z-score against 500 random probes | -0.52 PBM z-score against 500 random probes | -1.02 PBM z-score against 500 random probes | -0.13 PBM z-score against 500 random probes | -0.67 PBM z-score against 500 random probes | – | – | – | –
3 | NRC3_wobSeed125_DR5_C8G_o1 (dsDNA) DNA 1: GCCCTTAGGGGTCACTGACAGGTTATAGCATTTGGAGCGATTGACAGCGTAGAATGAAGG DNA 2: CCTTCATTCTACGCTGTCAATCGCTCCAAATGCTATAACCTGTCAGTGACCCCTAAGGGC | 9.59 PBM z-score against 500 random probes | 7.93 PBM z-score against 500 random probes | 8.59 PBM z-score against 500 random probes | 8.18 PBM z-score against 500 random probes | 6.5 PBM z-score against 500 random probes | 6.07 PBM z-score against 500 random probes | 6.95 PBM z-score against 500 random probes | 5.48 PBM z-score against 500 random probes | –
4 | NRC3_wobSeed45_DR1_A20G_o1 (dsDNA) DNA 1: GCTGTCAAAGTTCAAAGGTGACGTAAGTATCCACACGCGATTGACAGCGTAGAATGAAGG DNA 2: CCTTCATTCTACGCTGTCAATCGCGTGTGGATACTTACGTCACCTTTGAACTTTGACAGC | 8.27 PBM z-score against 500 random probes | 7.89 PBM z-score against 500 random probes | 7.78 PBM z-score against 500 random probes | – | – | – | – | – | –
5 | NRC3_wobSeed36_DR1_G12T_o1 (dsDNA) DNA 1: GCCCGACTGGGTCAAAGGTTACCATACTCAGTACGAGCGATTGACAGCGTAGAATGAAGG DNA 2: CCTTCATTCTACGCTGTCAATCGCTCGTACTGAGTATGGTAACCTTTGACCCAGTCGGGC | 7.96 PBM z-score against 500 random probes | 7.7 PBM z-score against 500 random probes | – | – | – | – | 6.73 PBM z-score against 500 random probes | – | –
6 | NRC3_wobSeed36_DR1_T8G_o1 (dsDNA) DNA 1: GCCCGACGGGGGCAAAGGTTACCATACTCAGTACGAGCGATTGACAGCGTAGAATGAAGG DNA 2: CCTTCATTCTACGCTGTCAATCGCTCGTACTGAGTATGGTAACCTTTGCCCCCGTCGGGC | 7.82 PBM z-score against 500 random probes | 7.46 PBM z-score against 500 random probes | – | – | – | 5.85 PBM z-score against 500 random probes | – | – | –
7 | NRC3_wobSeed61_DR2_C7A_o1 (dsDNA) DNA 1: GCCGTCAAAGGTCAGCAGGTCAGTGAAAGCGACGTGGCGATTGACAGCGTAGAATGAAGG DNA 2: CCTTCATTCTACGCTGTCAATCGCCACGTCGCTTTCACTGACCTGCTGACCTTTGACGGC | 7.98 PBM z-score against 500 random probes | 7.38 PBM z-score against 500 random probes | 8.26 PBM z-score against 500 random probes | 8.13 PBM z-score against 500 random probes | – | – | 6.49 PBM z-score against 500 random probes | 6.16 PBM z-score against 500 random probes | –
8 | NRC3_wobSeed85_DR3_C7A_o1 (dsDNA) DNA 1: GCCGTCAAAGGTCAGAGAGGTCAGTGAATGCCGAGTGCGATTGACAGCGTAGAATGAAGG DNA 2: CCTTCATTCTACGCTGTCAATCGCACTCGGCATTCACTGACCTCTCTGACCTTTGACGGC | 7.98 PBM z-score against 500 random probes | 7.18 PBM z-score against 500 random probes | 8.03 PBM z-score against 500 random probes | 7.93 PBM z-score against 500 random probes | 7.92 PBM z-score against 500 random probes | 5.98 PBM z-score against 500 random probes | – | 5.97 PBM z-score against 500 random probes | –
9 | NRC3_wobSeed42_DR1_G22A_o1 (dsDNA) DNA 1: GCTATACAGGGTCAAAGGCCAAAGTACGAATGTCGAGCGATTGACAGCGTAGAATGAAGG DNA 2: CCTTCATTCTACGCTGTCAATCGCTCGACATTCGTACTTTGGCCTTTGACCCTGTATAGC | 8.11 PBM z-score against 500 random probes | 7.1 PBM z-score against 500 random probes | 7.75 PBM z-score against 500 random probes | – | – | – | 6.61 PBM z-score against 500 random probes | – | –
10 | NRC3_wobSeed77_DR3_G19C_o1 (dsDNA) DNA 1: GCACTTACGGGTCAACGACGTTATAGCACGCGTATAGCGATTGACAGCGTAGAATGAAGG DNA 2: CCTTCATTCTACGCTGTCAATCGCTATACGCGTGCTATAACGTCGTTGACCCGTAAGTGC | – | 4.03 PBM z-score against 500 random probes | – | – | – | 3.79 PBM z-score against 500 random probes | – | – | –
11 | NRC3_wobSeed10_DR0_G6A_o1 (dsDNA) DNA 1: GCATCAAAAGGTCGAGGTGAGTATAGAGAAAGGGAAGCGATTGACAGCGTAGAATGAAGG DNA 2: CCTTCATTCTACGCTGTCAATCGCTTCCCTTTCTCTATACTCACCTCGACCTTTTGATGC | – | 3.83 PBM z-score against 500 random probes | – | – | – | 3.24 PBM z-score against 500 random probes | – | – | –
12 | NRC3_wobSeed130_DR5_G22A_o1 (dsDNA) DNA 1: GCCTCGAAAGGTCGTGCTCAGATGAGTATACCAAACGCGATTGACAGCGTAGAATGAAGG DNA 2: CCTTCATTCTACGCTGTCAATCGCGTTTGGTATACTCATCTGAGCACGACCTTTCGAGGC | – | 3.27 PBM z-score against 500 random probes | – | – | – | – | – | – | 3.83 PBM z-score against 500 random probes
13 | NRC3_wobSeed130_DR5_C13G_o1 (dsDNA) DNA 1: GCCTCGAAAGGTGGTGCTCAGGTGAGTATACCAAACGCGATTGACAGCGTAGAATGAAGG DNA 2: CCTTCATTCTACGCTGTCAATCGCGTTTGGTATACTCACCTGAGCACCACCTTTCGAGGC | -0.07 PBM z-score against 500 random probes | 0.34 PBM z-score against 500 random probes | – | – | – | – | 0.16 PBM z-score against 500 random probes | – | –
14 | NRC3_random_hg19_386_o1 (dsDNA) DNA 1: GCTCCCTTCCCTTCCCTTCCCTTCCCACAACCACTGGCGATTGACAGCGTAGAATGAAGG DNA 2: CCTTCATTCTACGCTGTCAATCGCCAGTGGTTGTGGGAAGGGAAGGGAAGGGAAGGGAGC | -0.1 PBM z-score against 500 random probes | 0.49 PBM z-score against 500 random probes | – | -0.29 PBM z-score against 500 random probes | – | – | – | – | –
15 | NRC3_random_hg19_212_o1 (dsDNA) DNA 1: GCAAGCATCCAGGACAAGGAAAGAGTAATCAATGGCGCGATTGACAGCGTAGAATGAAGG DNA 2: CCTTCATTCTACGCTGTCAATCGCGCCATTGATTACTCTTTCCTTGTCCTGGATGCTTGC | – | -0.03 PBM z-score against 500 random probes | – | – | 0.09 PBM z-score against 500 random probes | – | – | – | -0.29 PBM z-score against 500 random probes
16 | NRC3_random_hg19_281_o1 (dsDNA) DNA 1: GCTTGTTGCTTCTGTTCTACGCCAGTGACTTGGAAAGCGATTGACAGCGTAGAATGAAGG DNA 2: CCTTCATTCTACGCTGTCAATCGCTTTCCAAGTCACTGGCGTAGAACAGAAGCAACAAGC | – | -0.05 PBM z-score against 500 random probes | – | – | -0.16 PBM z-score against 500 random probes | – | -0.08 PBM z-score against 500 random probes | – | –
17 | NRC3_random_hg19_112_o1 (dsDNA) DNA 1: GCATCTGGCATATGTTCACTCCATGTACCACAGATAGCGATTGACAGCGTAGAATGAAGG DNA 2: CCTTCATTCTACGCTGTCAATCGCTATCTGTGGTACATGGAGTGAACATATGCCAGATGC | – | -0.07 PBM z-score against 500 random probes | – | – | – | – | – | – | -0.28 PBM z-score against 500 random probes
18 | NRC3_random_hg19_49_o1 (dsDNA) DNA 1: GCACAGAAGGTAGCAAAGTAATCATGCTAGTGGTCAGCGATTGACAGCGTAGAATGAAGG DNA 2: CCTTCATTCTACGCTGTCAATCGCTGACCACTAGCATGATTACTTTGCTACCTTCTGTGC | – | -0.41 PBM z-score against 500 random probes | – | – | – | – | – | – | -0.5 PBM z-score against 500 random probes
19 | NRC3_random_hg19_127_o1 (dsDNA) DNA 1: GCATGAGGTACTGATACATGCTACAATGTGTATGTAGCGATTGACAGCGTAGAATGAAGG DNA 2: CCTTCATTCTACGCTGTCAATCGCTACATACACATTGTAGCATGTATCAGTACCTCATGC | – | -0.55 PBM z-score against 500 random probes | – | – | -0.33 PBM z-score against 500 random probes | – | – | – | –
20 | NRC3_random_hg19_205_o1 (dsDNA) DNA 1: GCGAATCATCATGAGCTCAGAATGATCCTAGGCAGAGCGATTGACAGCGTAGAATGAAGG DNA 2: CCTTCATTCTACGCTGTCAATCGCTCTGCCTAGGATCATTCTGAGCTCATGATGATTCGC | – | -0.66 PBM z-score against 500 random probes | – | – | – | -0.63 PBM z-score against 500 random probes | – | – | –
21 | NRC3_random_hg19_37_o1 (dsDNA) DNA 1: GCTTTGCCAGGTGCGGTGGCTCAATGCCTGTAATCCGCGATTGACAGCGTAGAATGAAGG DNA 2: CCTTCATTCTACGCTGTCAATCGCGGATTACAGGCATTGAGCCACCGCACCTGGCAAAGC | – | -0.74 PBM z-score against 500 random probes | – | – | – | -1.03 PBM z-score against 500 random probes | – | – | –
